This is an account of results in US6355790, “Inhibition of HIV replication using a mutated transfer RNA primer” (University of Rochester).

Data set [1] deals with T1, HIV-1 reverse transcriptase (p66/p51) (Human immunodeficiency virus 1, UniProt P04585;P04585 P04585:588-1147,P04585:588-1027). As to the kind of experiment: EMSA; affinity similar to tRNALys3; 100-fold excess competes effectively; 6 mM MgCl2, 60 mM NaCl, pH 8.3, 37 C. The conditions noted are these: Genetics Institute (Cambridge, MA) for polymerase assays; tRNA cloverleaf, acceptor stem restored. On the technique in general: Mobility shift assays separate free from complexed probe on a gel.

Data set [2] addresses MoMuLV reverse transcriptase (Moloney murine leukemia virus, UniProt P03355 P03355:660-1330). As to the kind of experiment: EMSA; did not bind MoMuLV RT.
For data set [3], the target named is T1, HIV-1 reverse transcriptase (p66/p51). In words: EMSA; complex formed; competed by 100-fold excess of itself; 6 mM MgCl2, 60 mM NaCl, 40 mM Tris-HCl pH 8.3, 10 mM DTT, 37 C. The settings on record: Genetics Institute (Cambridge, MA) for polymerase assays; label: 32P (CTP, internal); tRNA cloverleaf.

B1: tRNAtarD (ssRNA)
RNA: UAGACCAUAGCUCAGUCGGUAGAGCAUCAGACUUUUAAUCUGAGGGUCCAGGGUUCAAGUCCCUGUGGUCUAACCA
As for B1, the binding result in data set [1] is on record as “binds”; in data set [2] it was “no binding”.

B2: tRNALys3 (ssRNA)
RNA: GCCCGGAUAGCUCAGUCGGUAGAGCAUCAGACUUUUAAUCUGAGGGUCCAGGGUUCAAGUCCCUGUUCGGGCGCCA
As for B2, the binding result in data set [3] is “binds”.
